Patent US20020165186A1, “Compounds that affect CD83 expression, pharmaceutical compositions comprising said compounds and methods for identifying said compounds” (priority 2000, published 2002)

Tests used:
Type in all cases: binding
[1] = biological target: T1, GST-ELAV (HuR) (Homo sapiens, UniProt Q15717); experiment: Surface Plasmon Resonance (BIACore X) protein-RNA interaction
T1 construct: made in house; host or cells: E. coli BL21
Description: Specific protein-RNA interactions were detected by Surface Plasmon Resonance using the BIACore X optical biosensor (Pharmacia Biosensor AB, Upsala, Sweden).
The RNA used contained nucleotides 466 to 615 of SEQ ID NO:1 having a molecular mass of 48,350 gr/mol.
The GST-fusion proteins of interest (GST alone or GST-ELAV (HuR)) were immobilized onto the surface of a CM5 Chip (Pharmacia Biosensor AB, Upsala, Sweden) by using the BIACore GST Capture Kit (Pharmacia Biosensor AB, Upsala, Sweden), according to the manufacturers instructions, until a change of at least 1,000 resonance units (RU) was detectable.
1 μg of in vitro transcribed RNA (using the T7/SP6 Riboprobe Kit, Promega, Mannheim, Germany) was diluted in a total volume of 80 μl HBS-EP buffer (10 mM HEPES, 150 mM NaCl, 3 mM EDTA, 0.005% (v/v) polysorbate 20) and was allowed to flow over the chip at a flow rate of 50μl/minute. The standard running buffer was HBS-EP buffer. The sensor surface was regenerated between assays by injecting 30 μl of 0.5 M NaCl to remove bound analyte.
Determination of KD values and calculation of binding specifity were performed using BIAEvaluation Software 3.1 (Pharmacia Biosensor AB, Upsala, Sweden).

[2] = biological target: T2, GST protein (Schistosoma japonicum, UniProt P08515); experiment: RNA gel mobility shift of CD83 RNA with GST protein control; conditions: native polyacrylamide gel, FIG. 3
T2 construct: made in house
Procedure: (§1) RNA mobility shift experiments were then carried out using the radioactively labeled CD83 RNA and the GST-ELAV (HuR) fusion protein as described above. 1 μl of approximately 150-200 ng/ml radioactively labeled CD83 RNA and 1 μl of GST-ELAV (HuR) (protein concentration: 0.3 mg/ml) were used per reaction. Alternatively, GST protein without ELAV sequences was used as a control. The radioactively labeled CD83 RNA was heated to 80° C. in a water bath and cooled to room temperature directly before the reaction. The GST-ELAV (HuR) fusion protein (or GST control protein directly expressed from the vector pGEX-5X-1 was carefully mixed with a binding mixture consisting of 1 μl radioactively labeled CD83 RNA, 1 μl Rnasin® RNAse inhibitor (diluted 5:1 in PBS), 1 μl 10×PBS and 6 μl MS2 RNA or 5S RNA (Roche Diagnostics, Mannheim, Germany) (0.8 μg/μl) and incubated at room temperature for 30 min. 3 μl of 50% glycerin were added to each reaction to ease loading and analysis of the binding between the GST-ELAV (HuR) fusion protein and the CD83 RNA occurred on a 4% or 6% native polyacrylamide gel with a TBE running buffer of pH 8.3.

[3] = biological target: T3, GST-ELAV (HuR) fusion protein (Homo sapiens, UniProt Q15717); experiment: RNA gel mobility shift of CD83 RNA with GST-ELAV (HuR); conditions: for HuR binding to sub-fragment domain: FIG. 10
T3 construct: made in house; host or cells: E. coli BL21
Procedure: RNA mobility shift experiments are a very sensitive method for characterizing RNA-protein interactions. For this, the RNA to be examined can be amplified and radioactively labeled with the aid of in vitro transcription from a linear DNA template. The labeling generally occurs with […]. In order to ensure the correct folding of the RNA, this is heated in a water bath to 80° C. and cooled to room temperature. RNA obtained in this manner is then incubated with the desired protein and subsequently analyzed on a native polyacrylamide gel, i.e. under non-denaturing conditions.
In order to obtain radioactively labeled RNA for the RNA mobility shift experiments, approximately 20 μg of this vector were linearized with EcoRI and purified on a 0.8% agarose gel. After elution from the gel, the template was extracted with phenol and ethanol precipitated. The resulting DNA was resuspended at a concentration of […] in 20μl nuclease-free water. Radioactively labeled RNA was generated using a Riboprobe In Vitro Transcription System (Promega, Heidelberg, Germany) according to the instructions of the manufacturer using [α-^32P]-UTP. The transcription products were controlled for size and purity by separating 1 μl of the in vitro transcription reaction on a denaturing RNA agarose gel (1.2%), blotting the gel to a nitrocellulose membrane (Amersham-Pharmacia, Freiburg, Germany) for 8 hours and examining the nitrocellulose filter with the aid of photographic film using RNA size standards.
as §1
As a control for the specificity of the interaction between HuR and CD83 mRNA, RNA mobility shifts as described in Example 1 were performed using the GST protein as described above, a GST-L5 fusion protein (Schatz et al. (1998) PNAS USA 95: 1607-1612), and a GST- M9 fusion protein comprising the M9 domain of the heterogeneous nuclear ribonucleoprotein hnRNP A1 (Pollard, V. W. et al. (1996) Cell 86: 985-994).
The resulting vectors were linearized with EcoRI and radioactively labeled RNA was produced and employed in RNA mobility shift assays as described above.

[4] = biological target: T1, GST-ELAV (HuR); experiment: RNA gel competition mobility shift with unlabeled CD83 RNA; conditions: increasing amounts of unlabeled RNA, FIG. 5
Procedure: For this, the binding mixture as described above was produced with increasing amounts of non-radioactive CD83 RNA and the RNA mobility shift experiments were carried out as described above, except that the binding mixture was incubated with the respective protein for 15 min and then the same amount of radioactively labeled CD83 RNA (1 μl) was subsequently added to each reaction and incubation was continued for a further 15 min.

T3 sequence (Q15717 whole entry, the tested form may be a part): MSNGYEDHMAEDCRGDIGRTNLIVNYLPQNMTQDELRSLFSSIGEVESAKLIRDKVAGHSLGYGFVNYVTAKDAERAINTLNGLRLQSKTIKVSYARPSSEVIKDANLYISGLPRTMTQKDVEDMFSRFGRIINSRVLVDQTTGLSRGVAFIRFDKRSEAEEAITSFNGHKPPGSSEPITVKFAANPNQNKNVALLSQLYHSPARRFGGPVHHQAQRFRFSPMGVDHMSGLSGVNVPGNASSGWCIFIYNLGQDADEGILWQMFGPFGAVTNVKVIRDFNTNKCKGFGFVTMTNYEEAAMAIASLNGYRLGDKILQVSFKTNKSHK
T1 sequence (Q15717 whole entry): as the sequence (Q15717 whole entry, the tested form may be a part) above
T2 sequence (P08515 whole entry): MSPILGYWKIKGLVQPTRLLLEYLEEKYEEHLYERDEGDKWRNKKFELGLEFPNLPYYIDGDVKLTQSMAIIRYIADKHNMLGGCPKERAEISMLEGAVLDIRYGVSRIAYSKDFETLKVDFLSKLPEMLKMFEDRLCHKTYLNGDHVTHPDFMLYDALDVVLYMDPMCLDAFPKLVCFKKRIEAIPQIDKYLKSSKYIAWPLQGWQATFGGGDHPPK

B1: CD83 from nucleotides 466 to 615 of SEQ ID NO:1: in vitro transcribed RNA containing nucleotides 466 to 615 of SEQ ID NO:1 (nucleic acid, listed as Homo sapiens)
sense: TTAACACTCATCATTTTCACTTGTAAGTTTGCACGGCTACAGAGTATCTTCCCAGATTTTTCTAAAGCTGGCATGGAACGAGCTTTTCTCCCAGTTACCTCCCCAAATAAGCATTTAGGGCTAGTGACTCCTCACAAGACAGAACTGGTA
modifications: RNA transcript; CDS (1)..(615)
binding of HuR (affinity and specificity in words) [1]: high affinity and is highly specific

B2: CD83 RNA: in vitro transcribed RNA of nucleotides 1 to 618 of SEQ ID NO:1 (human CD83 coding region) (nucleic acid, listed as Homo sapiens)
sense: ATGTCGCGCGGCCTCCAGCTTCTGCTCCTGAGCTGCGCCTACAGCCTGGCTCCCGCGACGCCGGAGGTGAAGGTGGCTTGCTCCGAAGATGTGGACTTGCCCTGCACCGCCCCCTGGGATCCGCAGGTTCCCTACACGGTCTCCTGGGTCAAGTTATTGGAGGGTGGTGAAGAGAGGATGGAGACACCCCAGGAAGACCACCTCAGGGGACAGCACTATCATCAGAAGGGGCAAAATGGTTCTTTCGACGCCCCCAATGAAAGGCCCTATTCCCTGAAGATCCGAAACACTACCAGCTGCAACTCGGGGACATACAGGTGCACTCTGCAGGACCCGGATGGGCAGAGAAACCTAAGTGGCAAGGTGATCTTGAGAGTGACAGGATGCCCTGCACAGCGTAAAGAAGAGACTTTTAAGAAATACAGAGCGGAGATTGTCCTGCTGCTGGCTCTGGTTATTTTCTACTTAACACTCATCATTTTCACTTGTAAGTTTGCACGGCTACAGAGTATCTTCCCAGATTTTTCTAAAGCTGGCATGGAACGAGCTTTTCTCCCAGTTACCTCCCCAAATAAGCATTTAGGGCTAGTGACTCCTCACAAGACAGAACTGGTATGA
modifications: RNA transcript; CDS (1)..(615)
mobility shift of the RNA by GST protein control [2]: no shift occurred
specificity of the shift in mobility (GST, GST-L5, GST-M9, GST-ELAV (HuR)) ([3]; FIG. 4): only observed with protein comprising the HuR sequence
mobility shift of the RNA by GST-ELAV (HuR) ([3]; native polyacrylamide gel, FIG. 3): shifted the CD83 RNA to a higher position in the gel
region of HuR binding ([3]; sub-fragments nt1-294, nt202-414, nt295-618, FIG. 6): from nucleotide 415 to nucleotide 618
competition of labeled CD83 RNA binding by unlabeled RNA [4]: capable of titrating free GST-ELAV (HuR) protein

B3: stem-loop-2: CD83 RNA sub-fragment from nucleotide 466 to nucleotide 618 of SEQ ID NO:1, 3-pronged stem-loop structure (nucleic acid, listed as Homo sapiens)
sense: TTAACACTCATCATTTTCACTTGTAAGTTTGCACGGCTACAGAGTATCTTCCCAGATTTTTCTAAAGCTGGCATGGAACGAGCTTTTCTCCCAGTTACCTCCCCAAATAAGCATTTAGGGCTAGTGACTCCTCACAAGACAGAACTGGTATGA
modifications: RNA; CDS (1)..(615)
HuR binding to sub-fragment domain [3]: can bind

B4: stem-loop-1: CD83 RNA sub-fragment from nucleotide 295 to nucleotide 465 of SEQ ID NO:1, single stem-loop structure (nucleic acid, listed as Homo sapiens)
sense: AGCTGCAACTCGGGGACATACAGGTGCACTCTGCAGGACCCGGATGGGCAGAGAAACCTAAGTGGCAAGGTGATCTTGAGAGTGACAGGATGCCCTGCACAGCGTAAAGAAGAGACTTTTAAGAAATACAGAGCGGAGATTGTCCTGCTGCTGGCTCTGGTTATTTTCTAC
modifications: RNA; CDS (1)..(615)
HuR binding to sub-fragment domain [3]: can bind
